This data set in a line: label from the status in PepcDB records.
“VPYAVEGRNYQGDLYLPCERIRAGLVLLPGAAEEGKDDPRLQAFAETLARARFAVLVPDLGGFRSLRAGSRDIGETADAILWLSSRPGLSPGGKCGVAALSYAGGPALLAALEPRAGQRVRFLVTVGGYYDLRNVLTFFTTGWYRDGDRWRRGTPNNYGKWVFVLANTDRIKNVRDRTALEKLARRKMDNPAARTDDLVRGLGPEGKSLYDFFANTDPRQVPALVERLPTPIRRDLAALDPSRRDLRGLTARLIIIHGRDDDIIPAAESEALARAVPRDRRGLFVLDGLMHVELKPKLTDAFRLWRAVSAILRER”: the protein production entry was “failed”.

For “MTQQHLFPSTKAKSYKLFCFYLLILTSLLHPATAGAADITQQLHRPVNSSMGRQSRDEADSLLRVAEQQYAAGCADKAIDSGLQALDIYHLIGDLRAKGLTYNLLAKAYIELGRFKEGEDALRRRLAIARDTKDFQSQIFALNNLGTLLLQAGEPKAAGETIQEAYTIADNVKNIDGEGLSLSNLGLVSSRLGDYNKAIKLYETALIFRRRTGDAPGEMNTLNNLGDAYLAAGNYPDTIGTYGAAMRIAKTLGDRSNQLRAIDGLVTAHSAVGRYERAFDLLQQRLTIAQELQNLREELKSFESYAKLYEQLGNYPTARNFYERAIIISQTLEDNKQEVFLRDRLTQMLRSQKSILK”, the protein production result was “failed”.

For the sequence “MEATNLPQPSAPADLGALQRPSYFRRLGPFDWLFAALLALGAGYAFSRYGAYMDGYERGILVAAVPAFAWLGWTWKPVRTLMIGLAVLSLFAIAQYSGPNGPELARADRVFFLKYFLASQSAILWMSALIFLSTLFFWAGLAARWPAGGAIGSKLCWAAVVLGLTGMLVRWYESYLVGADIGHIPISNLYEVFILFTLITSLFYLYYEQRYRTRALGPFVMLVVSAAVGFLLWYTVSRGAQEIQPLVPALQSWWMKIHVPANFIGYGTFALAAMVGAAYLLKEHGVLADRLPSLEVLDDVMYKAITVGFAFFTIATILGALWAADAWGGYWSWDPKETWALIVWLNYAAWLHMRLMKGLRGRMAAWWALVGLLVTTFAFLGVNMFLSGLHSYGEL”, the protein production result is “failed”.

As for “MVYFYPINDSRWYTFIHLFLYCKALKLLVVPNSKGVSPIFNQITIHNQHTENWLIIGLFCGAFVTGADAFIISALLPAIATSLHVPTNTAAYGVTVYALCYAIGAPLFGPLGDRFNKRFLLIRGCGIFLLGTLLCGLANSLLTFYLYRAIAGIGAALFVPNIWAFIGTYFNGQRLNQVMGIVMSALSLSIATGVPLGALLAQLSSWHMAFWGSAMLTLIALSILTIAIPSLPSQNAQPDGYFTSFKTLVHTPHAIAALLITLTWMTGFYGVYTFLGVFATATFHFNTMQTGLIFITYGSANFVASFFAGKLISLLGKKQSVTINGLVSATLVLSLGIWGQHLAVLLIILVVLALSQGWGVTALTATIVNIVPSNRSTIMSFNSAFLYYGLTLGSAAGGLLLTKIGFYAVTIAAATALLVAVLIANALSHYSD”, the protein production result is recorded as “failed”.

With “MNLPKKVRLVEVGPRDGLQNEKQPIEVADKIRLVDDLSAAGLDYIEVGSFVSPKWVPQMAGSAEVFAGIRQRPGVTYAALAPNLKGFEAALESGVKEVAVFAAASEAFSQRNINCSIKDSLERFVPVLEAARQHQVRVRGYISCVLGCPYDGDVDPRQVAWVARELQQMGCYEVSLGDTIGVGTAGATRRLIEAVASEVPRERLAGHFHDTYGQALANIYASLLEGIAVFDSSVAGLGGCPYAKGATGNVASEDVLYLLNGLEIHTGVDMHALVDAGQRICAVLGKSNGSRAAKALLAKA”, the protein production entry is listed as “not failed”.

With “MKTAWLLLLLLGVGALGGCAVNPATGKSDFVMMSEQQELGMGARYNQEILKQFPRYNDEKLQAYVQRVGERVARSSHRSNLQYHFTVIDSPDINAFALPGGYIYIHRGLIAYLGSEAELAAVLGHEVGHVTARHSVRQQSQASAWNILGQAVAIGTGVGAAGDLANVLGTAFVRGYGRDMELEADGLGAQYLARAGYDPTAMIQVVRVLKNQEDFAREEAARNGQAVQAGGYHGLFDTHPDNDRRLQEVVGPARQLANGQQEVGREVFLRHLEGMPFGDSASAGVRRGQNFYHAELDFTLSYPAGWKILNQPSALLGYPADEQSFIGMKLVPHDSRLTPAEFLRKNAGQRLAQEESLKQAGLNGYTAVVPGNPARRVAVIYQGDRAYLFVGVVKVGSLETQDDRFLSVIRSFRPLRDKERALAQPRRLHLVQVKAGQTLEQLAAGGEGSLSDSVARLRLLNDLYPSGEPRPGDWLKVVR”, the protein production entry is reported as “failed”.

(Values after a protein production outcome set (Wang et al. 2014).)
